The values that follow come from PMC4137059 (The Journal of Cell Biology, 2014).

The chains are these.
B2: Mtw1-Nnf1 heterodimer (complex)
chain 1: MSAPTMRSTSILTEHLGYPPISLVDDIINAVNEIMYKCTAAMEKYLLSKSKIGEEDYGEEIKSGVAKLESLLENSVDKNFDKLELYVLRNVLRIPEEYLDANVFRLENQKDLVIVDENELKKSEEKLREKVNDVELAFKKNEMLLKRVTKVKRLLFTIRGFKQKLNELLKCKDDVQLQKILESLKPIDDTMTLLTDSLRKLYVDSESTSSTEEVEALLQRLKTNGKQNNKDFRTRYIDIRTNNVLRKLGLLGDKEDEKQSAKPDARTQAGDIVSIDIEEPQLDLLDDVL
chain 2: MVNSHGIRYIRLKQVFNRALDQSISKLQSWDKVSSCFPQYVNSKQGAINVANCQRQLTEFWTELCQREFKEIMEERNVEQKLNELDELILEAKERYTDRDQDEVNKGPAIDELSSKELVECHLYSQRMHAIHEIDERLAKVNEMNDQLAQELKDLETQVEVEKNEIGKMYDEYLGSHTDQPANVLLVQSLNDMVLELKENY

The experiment “Mtw1-Nnf1 heterodimer” addresses B2. Description: ITC.
For the next experiment, the target named is Ndc80 complex (budding yeast, UniProt P40460;P33895;Q04477;P40014). Description: SEC. For orientation: SEC sorts molecules by how far they enter the pores of the column.
Sequence of Ndc80 complex (P40460 whole entry, chain 1 of 4): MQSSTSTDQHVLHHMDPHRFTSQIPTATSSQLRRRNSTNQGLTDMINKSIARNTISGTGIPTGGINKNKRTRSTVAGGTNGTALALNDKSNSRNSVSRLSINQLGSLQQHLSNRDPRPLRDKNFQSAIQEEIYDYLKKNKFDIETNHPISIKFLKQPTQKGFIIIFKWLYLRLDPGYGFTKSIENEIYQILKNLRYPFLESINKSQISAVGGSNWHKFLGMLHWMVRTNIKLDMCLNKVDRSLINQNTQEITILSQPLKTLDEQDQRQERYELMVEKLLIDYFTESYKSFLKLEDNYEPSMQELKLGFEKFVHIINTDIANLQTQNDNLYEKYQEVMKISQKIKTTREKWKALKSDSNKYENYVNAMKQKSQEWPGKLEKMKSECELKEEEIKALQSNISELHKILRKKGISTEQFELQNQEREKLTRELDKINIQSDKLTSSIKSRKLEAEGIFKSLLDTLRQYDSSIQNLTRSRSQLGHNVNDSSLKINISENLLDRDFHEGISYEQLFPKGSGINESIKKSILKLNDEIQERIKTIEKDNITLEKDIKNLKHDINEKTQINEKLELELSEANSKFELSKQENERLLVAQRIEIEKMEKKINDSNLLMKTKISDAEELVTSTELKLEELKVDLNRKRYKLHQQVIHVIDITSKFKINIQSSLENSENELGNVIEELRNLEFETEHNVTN
Sequence of Ndc80 complex (P33895 whole entry, chain 2 of 4): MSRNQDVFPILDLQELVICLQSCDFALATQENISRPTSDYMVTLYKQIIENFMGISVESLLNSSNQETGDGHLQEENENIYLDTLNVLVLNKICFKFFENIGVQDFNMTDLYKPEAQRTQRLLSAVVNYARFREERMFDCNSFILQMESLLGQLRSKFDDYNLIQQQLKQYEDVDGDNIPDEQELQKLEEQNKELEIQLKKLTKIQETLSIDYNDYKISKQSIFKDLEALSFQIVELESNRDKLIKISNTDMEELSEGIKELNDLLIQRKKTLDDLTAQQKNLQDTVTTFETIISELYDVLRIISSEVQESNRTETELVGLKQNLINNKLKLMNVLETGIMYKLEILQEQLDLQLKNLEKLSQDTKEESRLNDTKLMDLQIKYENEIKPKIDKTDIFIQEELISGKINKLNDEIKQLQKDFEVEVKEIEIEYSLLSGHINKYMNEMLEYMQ
Sequence of Ndc80 complex (Q04477 whole entry, chain 3 of 4): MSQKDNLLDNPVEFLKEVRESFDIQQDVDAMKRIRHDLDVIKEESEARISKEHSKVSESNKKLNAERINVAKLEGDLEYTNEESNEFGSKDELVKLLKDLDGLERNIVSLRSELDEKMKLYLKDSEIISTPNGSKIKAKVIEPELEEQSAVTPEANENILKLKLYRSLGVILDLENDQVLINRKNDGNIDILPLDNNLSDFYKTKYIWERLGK
Sequence of Ndc80 complex (P40014 whole entry, chain 4 of 4): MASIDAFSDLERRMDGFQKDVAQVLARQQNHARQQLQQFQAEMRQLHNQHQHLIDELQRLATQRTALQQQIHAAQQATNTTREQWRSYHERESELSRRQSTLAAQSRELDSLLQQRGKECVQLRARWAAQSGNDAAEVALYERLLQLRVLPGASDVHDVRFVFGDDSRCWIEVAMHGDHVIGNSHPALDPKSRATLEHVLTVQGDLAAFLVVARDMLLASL
The target of the next experiment is Ame1–Okp1 complex (budding yeast, UniProt P38313;P53298). Kind of experiment: ITC. For orientation: In ITC the heat of successive injections is recorded.
Sequence of Ame1–Okp1 complex (P53298 whole entry, one chain of several): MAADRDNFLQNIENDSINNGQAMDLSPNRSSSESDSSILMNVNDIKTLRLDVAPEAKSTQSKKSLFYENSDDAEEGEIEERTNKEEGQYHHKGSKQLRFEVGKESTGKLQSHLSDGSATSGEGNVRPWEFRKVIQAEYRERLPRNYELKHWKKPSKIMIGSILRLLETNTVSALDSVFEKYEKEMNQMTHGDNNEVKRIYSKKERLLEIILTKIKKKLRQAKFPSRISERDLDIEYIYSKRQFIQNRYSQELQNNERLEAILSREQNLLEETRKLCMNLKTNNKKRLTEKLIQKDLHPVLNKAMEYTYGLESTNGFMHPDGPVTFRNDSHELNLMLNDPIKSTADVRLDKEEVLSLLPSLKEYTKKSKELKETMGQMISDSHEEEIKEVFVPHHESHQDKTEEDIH

No end group written: not given here.

What is called Kd is the constant that tells how readily two partners part at equilibrium. Read a high Kd as weaker binding. In turn, {GST}-MDRDTKLAFRLRGSHSRRTDDIDDDVIVFK (domain or fragment) [GST-Ame1^1-30] gave a Kd with Mtw1-Nnf1 heterodimer of 1500 nM.

B1: Mtw1 complex (recombinant four-protein complex with a deletion of the N-terminal 172 residues of Dsn1) (complex)
chain 1: MSAPTMRSTSILTEHLGYPPISLVDDIINAVNEIMYKCTAAMEKYLLSKSKIGEEDYGEEIKSGVAKLESLLENSVDKNFDKLELYVLRNVLRIPEEYLDANVFRLENQKDLVIVDENELKKSEEKLREKVNDVELAFKKNEMLLKRVTKVKRLLFTIRGFKQKLNELLKCKDDVQLQKILESLKPIDDTMTLLTDSLRKLYVDSESTSSTEEVEALLQRLKTNGKQNNKDFRTRYIDIRTNNVLRKLGLLGDKEDEKQSAKPDARTQAGDIVSIDIEEPQLDLLDDVL
chain 2: MVNSHGIRYIRLKQVFNRALDQSISKLQSWDKVSSCFPQYVNSKQGAINVANCQRQLTEFWTELCQREFKEIMEERNVEQKLNELDELILEAKERYTDRDQDEVNKGPAIDELSSKELVECHLYSQRMHAIHEIDERLAKVNEMNDQLAQELKDLETQVEVEKNEIGKMYDEYLGSHTDQPANVLLVQSLNDMVLELKENY
chain 3: MSQGQSKKLDVTVEQLRSIYHQFHDILEEKTDLHLPKKEYDDDAVRREVQIQLQEFLLSAMTMASKSLEVVNADTVGKTVKQLIMESQEKYMEPFDLDLNEQVRKMYQEWEDETVKVAQLRQTGPAKINEVYNNSKDEYLAQLDGRIGVLQARMMQQQSADHDDSTDDADDHINWEHIKQDYVASLNELYQTQQDLPKVRYNVEKVKRLMDFLEED
chain 4: HSIMPNSSLQPFYSQPTAAGGPDMTTPQNISSSQQLLPAPQLFPYGSFHQQQLQQPHYIQRTRERKKSIGSQRGRRLSMLASQANGGSTIISPHKDIPEEDFYTVVGNASFGKNLQIRQLFNWCLMRSLHKLELKAKNQEEEGELEHLTKKSKLESTKAETDYVDPKRLAMVIIKEFVDDLKKDHIAIDWEDEEKYEDEDEEKILDNTENYDDTELRQLFQENDDDDDDDDEVDYSEIQRSRRKFSERRKALPKEPKKLLPNSKNVENTKNLSILTSKVNAIKNEVKEWAVTLDTSRPDLEWQELTSFSSQPLEPLSDTEEPDLAIADVETKLETKVDELRYQSHILNSHSLALNEITNSKVNKLNIETMRKISSETDDDHSQVINPQQLLKGLSLSFSKKLDL
For B1, in the experiment with Ndc80 complex, the binding result is reported as “binds”.
The stoichiometry N is a count of units in the complex or per binding partner. For B2, in the experiment with Ame1–Okp1 complex, the Kd came out at 1600 nM and the “stoichiometry N” value stood at 1.
